Measurements as given in patent publication US20120178116A1, “POLYPEPTIDES FOR IDENTIFYING FUNGICIDALLY ACTIVE COMPOUNDS” (priority 2011, published 2012).

Columns and labels:
[1] = target: complex of SEQ ID NO: 12 and SEQ ID NO: 16 (MBP-AK / MBP-AKA) (Ustilago maydis, UniProt A0A0D1E894); experiment: IMAP fluorescence polarization assay, inhibitor measurement of aurora kinase activity; type: biochemical, U. maydis
Procedure: Assay 3: For the commercially available IMAP Assay (Molecular Devices), 2 substrates for human aurora kinases (Kemptide, Cat #R7331, sequence 5TAMRA-LRRASLG-OH and PKAtide, Cat #R7250, Lot #130188, sequence 5FAM-GRTGRRNSI-NH2) may be purchased commercially. The assay was carried out in accordance with the instructions of the manufacturer.
The IMAP fluorescence polarization assay (Molecular Devices) is based on the specific high-affinity interaction between phosphate groups and trivalent metal ions. The kinase reaction phospholrylates a fluorescent substrate which is then specifically bonded by the metal beads present in the stop solution. This interaction increases the fluorescence polarization, which allows kinase activity to be determined. The assay was carried out in accordance with the instructions of the manufacturer as follows:
1 Vol. of inhibitor in 4% DMSO or 4% DMSO
1 Vol. of enzyme solution
Enzyme solution: for example SEQ ID NO: 12 and SEQ ID NO: 16 (1:1) in Complete Reaction Buffer ATP/substrate: 70 μM ATP/200 nM FAM-PKAtide or TAMRA-Kemptide in Complete Reaction Buffer
Fluorescence polarization was measured in a Tecan Ultra microtitre plate fluorimeter using the following measurement parameters:
Unless indicated otherwise, the activity of the AK was determined by the IMAP method as described under General Methods. […]

[2] = tested on: SEQ ID NO: 16 (MBP-AKA fusion protein; C terminus of aurora kinase activator um03367 of U. maydis with TAG)

Sequence of complex of SEQ ID NO: 12 and SEQ ID NO: 16 (MBP-AK / MBP-AKA) (A0A0D1E894 entry or part of it, one chain of several): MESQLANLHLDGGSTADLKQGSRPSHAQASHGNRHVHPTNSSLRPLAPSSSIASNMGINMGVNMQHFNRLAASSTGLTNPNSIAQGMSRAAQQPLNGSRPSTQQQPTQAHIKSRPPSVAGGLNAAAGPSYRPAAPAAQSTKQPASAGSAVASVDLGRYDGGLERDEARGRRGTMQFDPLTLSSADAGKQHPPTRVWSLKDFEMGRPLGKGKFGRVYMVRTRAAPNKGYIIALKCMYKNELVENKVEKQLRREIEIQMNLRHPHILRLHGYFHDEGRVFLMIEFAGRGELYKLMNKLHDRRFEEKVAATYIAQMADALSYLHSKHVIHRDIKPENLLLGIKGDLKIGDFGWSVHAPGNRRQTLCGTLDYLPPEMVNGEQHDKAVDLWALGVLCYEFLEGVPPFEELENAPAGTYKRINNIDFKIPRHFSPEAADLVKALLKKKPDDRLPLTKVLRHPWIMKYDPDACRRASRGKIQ

**Q.** How did the IC50 [1] turn out when CN[C@@H]1C[C@H]2O[C@@](C)([C@@H]1OC)n1c3ccccc3c3c4c(c5c6ccccc6n2c5c31)C(=O)NC4 [staurosporine] was run?
**A.** 2.1 nM

**Q.** For “SEQ ID NO: 12 (MBP-AK fusion protein; aurora kinase um10119 of U. maydis with TAG)”, which “AK activity, radioactive assay (phosphorylation of basic myelin protein)” value [2] is on record?
**A.** SEQ ID NO: 12 in the presence of SEQ ID NO: 16 shows AK activity

**Q.** What about the “phosphorylation of basic myelin protein, PKAtide and Kemptide (IMAP fluorescence polarization assays)” value [2] of the same compound?
**A.** The purified complex of MBP-SEQ ID NO: 12 and MBP-SEQ ID NO: 16 was capable of phosphorylating both basic myelin protein and the substrates for human aurora kinases, PKAtide and Kemptide

**Q.** What about the “phosphorylation of substrates for human aurora kinase A (IMAP assay)” value [2] of the same compound?
**A.** Both substrates for human aurora kinase A were phosphorylated by SEQ ID NO: 12 in the presence of SEQ ID NO: 16
